Article PMC6417941

Molecular target: Thermococcus kodakarensis RNA polymerase (Thermococcus kodakarensis)

elongation rate on histone-bound (HTkB) templates, against no factor: 1.5 fold
B1: Spt4-Spt5 complex (complex)
chain 1: MAKERACRHCHYITTEDRCPVCGSRDLSDDWFDLVIVLDVESRIAKKLRESIPEAAKVPGKYAIRVR
chain 2: MAEGKIFTVSVTVGQETTTANLIYSKAKTYNLPLYAILSPSKVKGYIFIEAPNKSAVEEAIRGIRHAKRVLPGEIPFSEIEHFLEEKPAVSGFEPGDIVELIAGPFKGEKAKVVRVDESKDEIVVELVSSVVPIPVTVRGEYVRLISKRQKE
